Assay [1] addresses A1-MAGE-A3 (HLA-A*0101 with the MAGE-A3 peptide …), biotinylated. Briefly: SPR (single cycle kinetics). The conditions noted are these: 25 °C; approximately 150 RUs of biotinylated pMHC immobilised onto a CM5 amine chip.
Assay [2] has as its target A1-Titin (HLA-A*0101 with the Titin peptide …), biotinylated. Briefly: SPR (single cycle kinetics). Particulars: 25 °C; approximately 150 RUs of biotinylated pMHC immobilised onto a CM5 amine chip.
In assay [3] the target is A1-Titin (HLA-A*0101 with the Titin peptide ), biotinylated. The experiment in a line: SPR. (In general: Surface plasmon resonance follows binding to a sensor surface in real time, without labels.)
Assay [4] addresses A1-MAGE-A3 (HLA-A*0101 with the MAGE-A3 peptide ), biotinylated. The experiment in a line: SPR.

For MAG-IC3 TCR F51T, in assay [1], the Kd came out at 3.2 nM and the other: t1/2 was determined as 66 min.

With MAG-IC3 TCR F51W, the other: t1/2 in assay [1] was found to be 20 min. Also, in assay [2], the equilibrium dissociation constant (Kd) was 172 nM and the other: t1/2 was determined as 1.5 min.

For MAG-IC3 TCR N97D, in assay [2], the Kd is 916 nM.

MAG-IC3 TCR N97E: in assay [1], the other: t1/2 was 14 min. Moreover, the dissociation constant Kd in assay [2] came out at 743 nM.

On to MAG-IC3 TCR N97Q, for which the Kd in assay [1] is 59 nM. In other words, the double-digit nanomolar range.

Regarding MAG-IC3 TCR R31L, the results for the Kd in assay [1] and in assay [2] were 13.4 nM and 93 nM, respectively.

For the substance MAG-IC3 TCR mutant F51T (β chain), the Kd in assay [3] amounted to 97.6 nM.

For the substance MAG-IC3 TCR mutant F51W (β chain), in assay [4], the Kd came to 8.4 nM.

The substance MAG-IC3 TCR mutant N97D (β chain) gave a dissociation constant Kd in assay [4] of 99.3 nM.

In assay [4], MAG-IC3 TCR mutant N97E (β chain) had a Kd of 35 nM.

The substance MAG-IC3 TCR mutant N97Q (β chain) returned a Kd in assay [3] of 601 nM.

With MAG-IC3 TCR mutant R31W (β chain), the results for the Kd in assay [3] and in assay [4] were 100 nM and 6.2 nM, respectively.

By Kd is commonly meant the constant that tells how readily two partners part at equilibrium. Low readings indicate tighter binding, high ones weaker binding.

The record behind these values is article PMC4725365.
